This assay has as its target SARS-CoV-2 spike receptor-binding domain (RBD), wild type (Severe acute respiratory syndrome …, UniProt P0DTC2). Nature of the assay: SPR. Particulars: both partners purified.

A word on the Kd: it is the equilibrium constant for the complex coming apart. A lower Kd goes with a tighter complex. What is called koff is the rate constant with which the complex falls apart. Broadly, the kon is the rate constant with which the complex forms. Read a high kon as fast association.

B1: 7B8, recombinant fully human IgG1 (antibody, V domains shown)
VH: QVQLVESGGGVVQPGRSLRLSCAASGFIFSSYGMHWVRQAPGKGLEWVAVIWFDGSNKYYADSVKGRFTISRDNSKNTLYLQMNSLRAEDTAVYYCARETVSYGMDVWGQGTTVTVSS
VL: NIQMTQSPSAMSASVGDRVTITCRARQGISNYLAWFQQKPGKVPKHLIYAASSLLSGVPSRFSGSGSETEFTLTISSLQPEDFATYYCLQHNSYPYTFGQGTKLEIK
notes: also called Ab4; source: ExpiCHO-S, transient expression, purified (protein A)
B1 showed a Kd of 523 pM, a koff of 9.55e-05 s⁻¹ and a kon of 182000 M⁻¹ s⁻¹.

For the origin of these results see PMC8290868 (Cell Discovery, 2021).
